Measurements: US20240368289A1 (LAEKNA THERAPEUTICS SHANGHAI, published 2024)

Experiments:
[1] = target: T1, recombinant protein comprising the human ACVR2A extracellular domain (ECD) fused to the human IgG1 Fc region (human, UniProt P27037 20-135); assay: SPR, Biacore 3000 (1st test); ACVR2A-Fc captured by anti-human Fc, Fab injected
T1 construct: extracellular domain; also called ACVR2A-Fc; ACVR2A-FC; not shown: human IgG1 Fc region
Description: (§1) 2.2 Surface Plasmon resonance (SPR) measurements and affinity analysis by anti-human Fc capture format. After affinity panning, output-3 (03) of CDRH1 library were screened for binding ability by Fab ELISA and followed by NGS DNA sequencing. Based on binding Elisa and sequence abundance from NGS data, 11 clones were select for SPR analysis. Approximately 100-800 resonance units (RU) of antigen ACVR2A, was captured by anti-human Fc immobilized on a channel of a CM5 chip with an activated amine group. After immobilization, Fab antibodies were injected into the channels at 25° C. in HBS-EP buffer, with a flow rate of 30 μL/min, 1 min. When the data collection was finished in each cycle, the sensor surface was regenerated using 80 mM NaOH with a flow rate of 30 μL/min, 15 sec and reused chip in next cycle. After subtraction of reference surface and buffer injection, curve was locally fitted with BIA evaluation version 4.1 using a 1:1 Langmuir binding mode.
(§2) The affinity of selected 11 anti-ACVR2A monoclonal antibody clones were determined on Biacore®3000 and Biacore®8000 as shown in Table 4 below.

[2] = target: T1, recombinant protein comprising the …; assay: SPR, Biacore 8000 (2nd test); ACVR2A-Fc captured by anti-human Fc, Fab injected
Description: as §1, §2

[3] = target: T1, recombinant protein comprising the …; assay: SPR, Biacore 3000 (1st test); ACVR2A-Fc captured by anti-human Fc, Fab injected; 1st test (Biacore 3000)
Description: as §1, §2

T1 sequence (P27037 20-135): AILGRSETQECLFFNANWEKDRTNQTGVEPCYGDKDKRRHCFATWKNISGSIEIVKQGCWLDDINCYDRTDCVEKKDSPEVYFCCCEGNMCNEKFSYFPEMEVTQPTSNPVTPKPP

Kd [1]: 5.29 nM | koff [1]: 0.00227 s⁻¹ | Kd [2]: 5.35 nM | koff [2]: 0.00257 s⁻¹ | kon [2]: 481000 M⁻¹ s⁻¹ | kon [3]: 429000 M⁻¹ s⁻¹
B1: clone A (Fab) (Fab, V domains shown)
VH: QVQLVQSGAEVKKPGSSVKVSCKASGGQFYHSRISWVRQAPGQGLEWMGGIIPIYGTANYAQKFQGRVTITADESTSTAYMELSSLRSEDTAVYYCVKDLTWTNLGLDIWGQGTMVTVSS
VL: EIVMTQSPSSLSASVGDTVTITCRASQGVSRWLAWYQQKPGKAPRLLIYAASSLHSGVPSRFSGSGSGTHFTLTISSLQPEDFATYFCQQSYSTPFTFGPGTKLEIK
notes: Fab made in E. coli TG1 and purified on Ni-NTA
